According to patent US20250049939A1 (TUBULIS, published 2025):

Tests used:
[1] = target: T1, human wildtype FLT3 expressed on Ba/F3 cells (human, UniProt P36888 27-993); assay: flow cytometry, cell surface binding to Ba/F3 cells expressing human FLT3 (results of FIG. 14 summarized)
T1 construct: also called hFLT3 wt; Ba/F3-FLT3
T1 sequence: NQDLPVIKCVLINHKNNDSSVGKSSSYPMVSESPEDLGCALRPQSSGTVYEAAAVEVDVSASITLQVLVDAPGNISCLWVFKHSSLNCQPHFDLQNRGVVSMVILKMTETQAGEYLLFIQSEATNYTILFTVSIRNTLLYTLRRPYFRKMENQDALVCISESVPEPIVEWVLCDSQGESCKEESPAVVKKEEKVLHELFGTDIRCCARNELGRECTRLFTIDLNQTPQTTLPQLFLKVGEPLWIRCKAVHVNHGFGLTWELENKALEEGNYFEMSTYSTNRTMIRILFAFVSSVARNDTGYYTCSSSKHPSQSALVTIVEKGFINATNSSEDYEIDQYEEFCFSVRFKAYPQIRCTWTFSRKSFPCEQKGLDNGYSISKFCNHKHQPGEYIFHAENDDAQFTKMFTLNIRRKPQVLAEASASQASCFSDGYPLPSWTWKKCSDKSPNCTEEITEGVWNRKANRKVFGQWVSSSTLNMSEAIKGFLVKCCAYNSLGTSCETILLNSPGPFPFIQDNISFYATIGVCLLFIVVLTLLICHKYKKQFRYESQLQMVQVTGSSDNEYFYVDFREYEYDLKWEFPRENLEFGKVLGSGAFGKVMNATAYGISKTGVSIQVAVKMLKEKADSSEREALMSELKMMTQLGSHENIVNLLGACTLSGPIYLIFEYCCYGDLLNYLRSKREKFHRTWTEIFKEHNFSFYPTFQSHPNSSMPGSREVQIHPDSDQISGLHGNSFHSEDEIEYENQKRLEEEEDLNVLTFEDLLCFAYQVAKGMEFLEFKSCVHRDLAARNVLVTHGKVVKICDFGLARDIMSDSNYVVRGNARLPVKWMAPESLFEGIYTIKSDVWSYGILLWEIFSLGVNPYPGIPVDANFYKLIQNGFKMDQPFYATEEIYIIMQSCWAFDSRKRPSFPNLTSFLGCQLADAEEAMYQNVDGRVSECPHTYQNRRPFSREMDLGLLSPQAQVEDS

[2] = target: T2, murine FLT3 expressed on Ba/F3 cells (mouse, UniProt Q00342 28-1000); assay: flow cytometry, cell surface binding to Ba/F3 pMIY cells expressing mFLT3wt, MFI ratio normalized to IgG1, mean ± s.d. of n=3
T2 construct: whole, on cells; also called mFLT3 wt; mFLT3
T2 sequence (looked up): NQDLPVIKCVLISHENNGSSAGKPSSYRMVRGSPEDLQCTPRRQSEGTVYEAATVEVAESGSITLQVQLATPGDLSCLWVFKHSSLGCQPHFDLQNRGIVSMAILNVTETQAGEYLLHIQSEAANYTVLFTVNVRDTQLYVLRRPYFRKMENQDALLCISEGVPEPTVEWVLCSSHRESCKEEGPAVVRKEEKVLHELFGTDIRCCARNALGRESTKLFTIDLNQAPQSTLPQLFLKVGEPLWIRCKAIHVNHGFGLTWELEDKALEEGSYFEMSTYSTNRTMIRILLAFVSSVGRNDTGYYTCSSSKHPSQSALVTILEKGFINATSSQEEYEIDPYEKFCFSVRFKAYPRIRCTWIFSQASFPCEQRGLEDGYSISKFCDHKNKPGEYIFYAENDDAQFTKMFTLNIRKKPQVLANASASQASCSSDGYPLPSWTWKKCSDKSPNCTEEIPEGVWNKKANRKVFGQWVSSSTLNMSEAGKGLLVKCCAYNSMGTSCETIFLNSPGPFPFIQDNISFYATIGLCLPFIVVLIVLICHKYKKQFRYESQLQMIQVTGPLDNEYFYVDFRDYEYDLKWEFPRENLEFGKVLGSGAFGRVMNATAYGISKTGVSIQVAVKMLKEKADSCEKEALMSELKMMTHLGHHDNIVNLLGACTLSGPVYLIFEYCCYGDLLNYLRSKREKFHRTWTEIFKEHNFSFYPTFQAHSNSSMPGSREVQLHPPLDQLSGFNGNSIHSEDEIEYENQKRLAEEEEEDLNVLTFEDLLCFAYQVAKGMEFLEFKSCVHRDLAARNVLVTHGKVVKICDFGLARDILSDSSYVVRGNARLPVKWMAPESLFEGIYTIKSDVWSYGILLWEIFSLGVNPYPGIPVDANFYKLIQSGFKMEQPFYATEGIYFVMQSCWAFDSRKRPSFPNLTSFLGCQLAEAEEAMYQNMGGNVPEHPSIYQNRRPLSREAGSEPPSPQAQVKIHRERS

- Binding to human FLT3 (MFI ratio to IgG1 control) [1]: 95.3
- binding result [2]: no binding
B1: Humanized clone 3 of 20D9 (VH3 + VK1) (antibody, human IgG1, kappa)
heavy: not shown
light: DIQMTQSPSVLSASVGDRVTINCRASQNINKELNWYQQKLGEAPKLLIYNTNNLQSGVPSRFSGSGSGTDYTLTISSLQPEDVATYFCFQHKSWPLTFGSGTKLEIKRTVAAPSVFIFPPSDEQLKSGTASVVCLLNNFYPREAKVQWKVDNALQSGNSQESVTEQDSKDSTYSLSSTLTLSKADYEKHKVYACEVTHQGLSSPVTKSFNRGEC
notes: also called candidate #3; #3 mab
